Laboratory results as given in the supplement of paper PMC11316812.
± gives the standard deviation of the averaged measurements.

What was measured:
MCF7 = test: percentage of EdU-negative (G0-arrested) nuclei per well, 72 h; higher = more G0 arrest; details: reference: sequence is the full UniProt precursor, the tested protein was the secreted form or ectodomain
hTERT-HMEC = test: as above; details: reference: sequence is the full UniProt precursor, the tested protein was the secreted form or ectodomain
[1] = protein concentration 0.0225 µM
[2] = protein concentration 0.00775 µM
[3] = protein concentration 0.0775 µM
[4] = protein concentration 0.0231575 µM
[5] = protein concentration 0.231575 µM
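Note: secreted proteins added to cultured cells, EdU pulse at the end, nuclei found by Hoechst imaging, EdU status from nuclear versus surrounding ring intensity ratio, PBS as neutral control.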

Sequence | percentage of EdU-negative (MCF7; [1]) | percentage of EdU-negative (MCF7; protein concentration 0.225 µM) | percentage of EdU-negative (hTERT-HMEC; [1]) | percentage of EdU-negative (hTERT-HMEC; protein concentration 0.225 µM) | other results
MDWSFFRVVAMLFIFLVVVEVNSEFRIQVRDYNTKNGTIKWHSIRRQKREWIKFAAACREGEDNSKRNPIAKIHSDCAANQQVTYRISGVGIDQPPYGIFVINQKTGEINITSIVDREVTPFFIIYCRALNSMGQDLERPLELRVRVLDINDNPPVFSMATFAGQIEENSNANTLVMILNATDADEPNNLNSKIAFKIIRQEPSDSPMFIINRNTGEIRTMNNFLDREQYGQYALAVRGSDRDGGADGMSAECECNIKILDVNDNIPYMEQSSYTIEIQENTLNSNLLEIRVIDLDEEFSANWMAVIFFISGNEGNWFEIEMNERTNVGILKVVKPLDYEAMQSLQLSIGVRNKAEFHHSIMSQYKLKASAISVTVLNVIEGPVFRPGSKTYVVTGNMGSNDKVGDFVATDLDTGRPSTTVRYVMGNNPADLLAVDSRTGKLTLKNKVTKEQYNMLGGKYQGTILSIDDNLQRTCTGTININIQSFGNDDRTNTEPNTKITTNTGRQESTSSTNYDTSTTSTDSSQVYSSEPGNGAKDLLSDNVHFGPAGIGLLIMGFLVLGLVPFLMICCDCGGAPRSAAGFEPVPECSDGAIHSWAVEGPQPEPRDITTVIPQIPPDNANIIECIDNSGVYTNEYGGREMQDLGGGERMTGFELTEGVKTSGMPEICQEYSGTLRRNSMRECREGGLNMNFMESYFCQKAYAYADEDEGRPSNDCLLIYDIEGVGSPAGSVGCCSFIGEDLDDSFLDTLGPKFKKLADISLGKESYPDLDPSWPPQSTEPVCLPQETEPVVSGHPPISPHFGTTTVISESTYPSGPGVLHPKPILDPLGYGNVTVTESYTTSDTLKPSVHVHDNRPASNVVVTERVVGPISGADLHGMLEMPDLRDGSNVIVTERVIAPSSSLPTSLTIHHPRESSNVVVTERVIQPTSGMIGSLSMHPELANAHNVIVTERVVSGAGVTGISGTTGISGGIGSSGLVGTSMGAGSGALSGAGISGGGIGLSSLGGTASIGHMRSSSDHHFNQTIGSASPSTARSRITKYSTVQYSK |  |  |  |  | percentage of EdU-negative (MCF7; protein concentration 0.014 µM): 25.17 ± 0.14%; percentage of EdU-negative (MCF7; protein concentration 0.14 µM): 28.1 ± 0.79%; percentage of EdU-negative (hTERT-HMEC; protein concentration 0.014 µM): 5.37 ± 1.1%; percentage of EdU-negative (hTERT-HMEC; protein concentration 0.14 µM): 5.1 ± 0.58%
MSLMVVSMVCVGFFLLQGAWPHEGVHRKPSLLAHPGPLVKSEETVILQCWSDVRFQHFLLHREGKFKDTLHLIGEHHDGVSKANFSIGPMMQDLAGTYRCYGSVTHSPYQLSAPSDPLDIVITGLYEKPSLSAQPGPTVLAGESVTLSCSSRSSYDMYHLSREGEAHERRFSAGPKVNGTFQADFPLGPATHGGTYRCFGSFRDSPYEWSNSSDPLLVSVTGNPSNSWPSPTEPSSETGNPRHLHVLIGTSVVIILFILLLFFLLHRWCCNKKNAVVMDQEPAGNRTVNREDSDEQDPQEVTYAQLNHCVFTQRKITRPSQRPKTPPTDIIVYTELPNAEP | 22.6 ± 0.43% | 26.6 ± 2.4% | 5.55 ± 0.17% | 11.3 ± 1.1% | 
MPEEGSGCSVRRRPYGCVLRAALVPLVAGLVICLVVCIQRFAQAQQQLPLESLGWDVAELQLNHTGPQQDPRLYWQGGPALGRSFLHGPELDKGQLRIHRDGIYMVHIQVTLAICSSTTASRHHPTTLAVGICSPASRSISLLRLSFHQGCTIASQRLTPLARGDTLCTNLTGTLLPSRNTDETFFGVQWVRP | 26.5 ± 2.2% | 26.6 ± 0.44% | 5.04 ± 0.08% | 5.11 ± 0.64% | 
MPLRDETLREVWASDSGHEEESLSPEAPRRPKQRPAPAQRLRKKRTEAPESPCPTGSKPRKPGAGRTGRPREEPSPDPAQARAPQTVYARFLRDPEAKKRDPRETFLVARAPDAEDEEEEEEEDEEDEEEEAEEKKEKILLPPKKPLREKSSADLKERRAKAQGPRGDLGSPDPPPKPLRVRNKEAPAGEGTKMRKTKKKGSGEADKDPSGSPASARKSPAAMFLVGEGSPDKKALKKKGTPKGARKEEEEEEEAATVIKKSNQKGKAKGKGKKKAKEERAPSPPVEVDEPREFVLRPAPQGRTVRCRLTRDKKGMDRGMYPSYFLHLDTEKKVFLLAGRKRKRSKTANYLISIDPTNLSRGGENFIGKLRSNLLGNRFTVFDNGQNPQRGYSTNVASLRQELAAVIYETNVLGFRGPRRMTVIIPGMSAENERVPIRPRNASDGLLVRWQNKTLESLIELHNKPPVWNDDSGSYTLNFQGRVTQASVKNFQIVHADDPDYIVLQFGRVAEDAFTLDYRYPLCALQAFAIALSSFDGKLACE |  |  |  |  | percentage of EdU-negative (MCF7; [2]): 25.1 ± 0.28%; percentage of EdU-negative (MCF7; [3]): 25.5 ± 0.95%; percentage of EdU-negative (hTERT-HMEC; [2]): 5.21 ± 0.36%; percentage of EdU-negative (hTERT-HMEC; [3]): 6.67 ± 0.59%
MYREWVVVNVFMMLYVQLVQGSSNEHGPVKRSSQSTLERSEQQIRAASSLEELLRITHSEDWKLWRCRLRLKSFTSMDSRSASHRSTRFAATFYDIETLKVIDEEWQRTQCSPRETCVEVASELGKSTNTFFKPPCVNVFRCGGCCNEESLICMNTSTSYISKQLFEISVPLTSVPELVPVKVANHTGCKCLPTAPRHPYSIIRRSIQIPEEDRCSHSKKLCPIDMLWDSNKCKCVLQEENPLAGTEDHSHLQEPALCGPHMMFDEDRCECVCKTPCPKDLIQHPKNCSCFECKESLETCCQKHKLFHPDTCSCEDRCPFHTRPCASGKTACAKHCRFPKEKRAAQGPHSRKNP |  |  |  |  | percentage of EdU-negative (MCF7; [4]): 27.2 ± 0.62%; percentage of EdU-negative (MCF7; [5]): 28.82 ± 0.28%; percentage of EdU-negative (hTERT-HMEC; [4]): 4.71 ± 0.18%; percentage of EdU-negative (hTERT-HMEC; [5]): 7.16 ± 1.6%
MAVFKTTLWRLISGTLGIICLSLMSTLGILLKNSFTKLSIEPAFTPGPNIELQKDSDCCSCQEKWVGYRCNCYFISSEQKTWNESRHLCASQKSSLLQLQNTDELDFMSSSQQFYWIGLSYSEEHTAWLWENGSALSQYLFPSFETFNTKNCIAYNPNGNALDESCEDKNRYICKQQLI | 26.6 ± 3% | 25.3 ± 3.1% | 4.98 ± 0.64% | 5.53 ± 0.17% | 
